The assay concerns the target c-Met on human cells (HPAF, A549, MKN-45) (human) (UniProt P08581). As to the kind of experiment: cell-based or functional assay.

Chain of c-Met on human cells (HPAF, A549, MKN-45) (human) (P08581 25-1390): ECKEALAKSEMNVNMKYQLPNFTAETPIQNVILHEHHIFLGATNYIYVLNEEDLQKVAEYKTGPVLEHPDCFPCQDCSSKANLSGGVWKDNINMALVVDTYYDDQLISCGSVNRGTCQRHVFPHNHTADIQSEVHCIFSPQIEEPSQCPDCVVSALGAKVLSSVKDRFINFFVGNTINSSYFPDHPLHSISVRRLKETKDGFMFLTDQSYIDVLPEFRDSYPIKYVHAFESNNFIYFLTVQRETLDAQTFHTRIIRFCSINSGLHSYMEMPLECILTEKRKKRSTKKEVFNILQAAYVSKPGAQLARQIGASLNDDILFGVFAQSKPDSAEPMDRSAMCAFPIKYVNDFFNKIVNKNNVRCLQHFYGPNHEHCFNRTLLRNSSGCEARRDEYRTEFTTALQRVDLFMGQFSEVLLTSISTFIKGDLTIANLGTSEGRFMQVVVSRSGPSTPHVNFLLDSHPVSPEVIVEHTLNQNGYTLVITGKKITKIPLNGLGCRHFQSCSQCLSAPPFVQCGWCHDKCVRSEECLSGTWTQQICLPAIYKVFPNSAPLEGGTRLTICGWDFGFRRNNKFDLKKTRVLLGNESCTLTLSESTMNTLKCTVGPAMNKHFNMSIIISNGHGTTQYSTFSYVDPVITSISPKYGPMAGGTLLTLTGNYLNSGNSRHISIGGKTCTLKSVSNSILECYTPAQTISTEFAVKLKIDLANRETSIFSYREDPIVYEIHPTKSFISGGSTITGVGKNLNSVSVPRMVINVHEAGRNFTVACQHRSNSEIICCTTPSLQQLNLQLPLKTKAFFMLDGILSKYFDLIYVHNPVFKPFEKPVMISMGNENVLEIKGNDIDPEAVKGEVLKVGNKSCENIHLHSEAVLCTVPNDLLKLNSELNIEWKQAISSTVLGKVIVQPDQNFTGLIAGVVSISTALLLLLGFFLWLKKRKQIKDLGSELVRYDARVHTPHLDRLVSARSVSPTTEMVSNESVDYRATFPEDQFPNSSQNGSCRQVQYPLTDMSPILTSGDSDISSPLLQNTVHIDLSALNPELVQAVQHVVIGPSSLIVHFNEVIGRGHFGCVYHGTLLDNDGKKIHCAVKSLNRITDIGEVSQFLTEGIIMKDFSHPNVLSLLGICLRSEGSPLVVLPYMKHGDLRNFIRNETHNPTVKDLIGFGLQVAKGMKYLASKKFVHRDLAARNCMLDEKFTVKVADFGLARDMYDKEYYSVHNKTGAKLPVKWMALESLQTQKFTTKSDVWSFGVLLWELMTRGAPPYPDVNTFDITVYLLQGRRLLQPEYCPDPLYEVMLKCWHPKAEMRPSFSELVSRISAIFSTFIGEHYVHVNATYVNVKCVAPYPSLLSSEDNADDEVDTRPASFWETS

On to murine 5D5 antibody, for which the down-regulation of total c-Met on the surface of MKN-45 cells (flow cytometry) lay within 50 to 60%.

The values above are taken from patent US20120148607A1.
